Source: PMC3159472

Target: F-SSB-Ct peptide (SSB-Ct with an N-terminal fluoresceine moiety) (E. coli)
Assay: fluorescence polarisation

SSB–ExoI fusion protein
Kd: 1.1 µM
